The labels stand for the following.
B1: TPR t1 (parent)
chain: GACCAAUCUGCCCUCAGAGCUCGAGAACAUCUUCGGAUGCAGAGGAGGCAGGCUUCGGUGGCGCGAUAGCGCCAACGUCCUCAACCUCCAAUGCAUCCCACCACAUGAUGAUGCCUGAAGAGCCUUGGUUUUUUG

Variants of B1 are the subject of the data set. Put plainly: polymerase ribozyme fitness, log enrichment relative to wild type (log ratio); higher = more active; in vitro selection for triplet polymerase activity. In a few lines: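 Genotype fitness is the logarithm of its enrichment divided by wild-type enrichment, using inverse-variance-weighted averages of replicates. That logarithm is base 2. Enrichment was measured by Illumina sequencing of input and output libraries from one triplicate in vitro selection round, with frozen incubation at −7 °C, on PCR-built, transcribed mutant libraries of each subunit of a heterodimeric triplet polymerase ribozyme, retaining genotypes with ≥10 input reads and ≥1 read per output.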
As for C13U A74C, the “polymerase ribozyme fitness (log ratio)” value was determined as 0.251.
The result for G63C G110U C123U G128C reads -5.59; that for U32C A105G U109G G117A, -7.37.
As to C70U C102A C124G, the “polymerase ribozyme fitness (log ratio)” value is -1.09.
Next, A43C U78C C80A C89U: -4.14; C4A U7G C31G C70G C86U U87C U112A: -5.92; A83U G117U: -1.02.
Next, C11A C70U G117A: -6.1; G61U A111C: -0.083.
Next, C13U U131A: -0.274; C73G C97U A118U: -1.07.
As for A5C C73A, the “polymerase ribozyme fitness (log ratio)” value was -0.312.
Next, A50C G52C C56G G63A G77U: -6.51.
Next, G69U C70G A100C: -1.23; G44A A105G: -4.47; G36C G69U A91U C94A G113C: -3.07.
For the variant G47U C64U U67C, the “polymerase ribozyme fitness (log ratio)” value is -7.12.
Next, C49U U96C C124A: 1.03; C40A C73U U78A: -0.967.
As to G110U U112C, the “polymerase ribozyme fitness (log ratio)” value is -2.02.
Next, G17U U109A: -6.56.
Next, C4G A41U A46C U87G A91U C115A G135U: -4.36; C15G C49G C89U C115G: -4.39; A18C A26G G71A G93A U112C G122A: -4.45.
Next, G35C G36A G51C C123G: -6.59; C20A G61A C80G U109A G113U U133G: -7.36; U81G C89G A121G: -4.14.
As for C13U U92A, the “polymerase ribozyme fitness (log ratio)” value was -2.13.
Next, A43G C102A: -4.25.
C62U U126G: the “polymerase ribozyme fitness (log ratio)” value is -3.05.
Next, G17A G48U G57C G60A: -2.98.
For the variant A5G U9G C12A U78C G93A, the “polymerase ribozyme fitness (log ratio)” value was -0.124.
For the variant A27G A46C A50U, the “polymerase ribozyme fitness (log ratio)” value was -4.64.
With G51C U78C, the “polymerase ribozyme fitness (log ratio)” value is -4.89.
Next, A46G C56A C101G U126C: -2.14; C76G G77U U78G U112C: 2.21; C13A A121C G128C: -1.87.
For A16U G61C, the “polymerase ribozyme fitness (log ratio)” value was -2.41.
Next, C40G A95U: -3.37.
In the case of C11G U126C, the “polymerase ribozyme fitness (log ratio)” value is -0.774.
The result for U7G G69A C101U reads -2.81.
The result for A41C A46G U109A reads -7.53; that for A2C A46C U55A C64G A84U, -7.2; that for G47A A50U A91C, -4.79.
The result for C94U A108U C124A reads -4.49; that for U92A C114U, -3.08; that for A18U A26G C40G A43U G69A C97A U112A, -7.04.
For the variant C98U A105G C114G C115A G135U, the “polymerase ribozyme fitness (log ratio)” value is -7.98.
Regarding A37C G45U C123A, the “polymerase ribozyme fitness (log ratio)” value is -0.836.
The result for A26U G47A reads -4.24; that for C40G A84G, -2.06; that for G36U U106A, -1.6.
The result for G60C G117A reads -0.79; that for G39C U55G A119U, -0.691.
Regarding C72A U131A G135U, the “polymerase ribozyme fitness (log ratio)” value came out at 0.0704.
The result for C11G A18U G48U C49U G61A reads -3.32.
The result for G60U G135U reads -0.871.
Next, A29U G48C C82G A118U: -2.03; C28G C72G: -2.2; C13G G48C U106C U112G G122A G135A: -2.17.
As to A18U G61C U112A G122U, the “polymerase ribozyme fitness (log ratio)” value was -6.15.
Regarding C62A C101U C114U C124A, the “polymerase ribozyme fitness (log ratio)” value was -3.63.
The result for A43C G48C reads -2.99; that for G17U C101A G107U G120C G127A U132C, -6.51.
Take U81A G110A: the “polymerase ribozyme fitness (log ratio)” value was -2.37.
The result for C3U G71U U125G reads -1.58; that for A6G G45A C72U U109G G120U, -5.05.
Next, U7C A83G A84C: -1.08; G69A A84U A91G: -6.33.
With C11G C28A, the “polymerase ribozyme fitness (log ratio)” value is -2.78.
The result for C11U G42C reads -2.01; that for G61U A66U U112A, 0.256.
Next, C22G A26C G42C A84U: -6.04; G63U U81C C86A U129C: -5.92.
Turning to C70G G127C, the “polymerase ribozyme fitness (log ratio)” value is -3.14.
Next, G47U U131G: -1.85; C20G C53G: -4.62.
Consider C11A C13G C115A, for which the “polymerase ribozyme fitness (log ratio)” value is -6.59.
In the case of A68G A90U, the “polymerase ribozyme fitness (log ratio)” value is -4.47.
Next, C3G A16U U38G: -4.66.
The result for A43C U87G G113C reads -2.52; that for A5C U14A A46U, -4.39; that for A26U G36C, -4.29.
The result for A37U C73G U130G reads -1.38; that for C8G A18U U21A C73U G93A, -3.79; that for C34G C82U, -6.19.
As for C15U A43C G69A C123U C124A, the “polymerase ribozyme fitness (log ratio)” value was -5.69.
The result for A18C U32C A95C G117A U129C reads -3.97; that for C20A C40U U132A, -2.39; that for C49G G60A A75U G93U, -3.65.
Next, A50U C86A A118U: -1.06; U54G G63U C88U C89A A103U G122U C124A: -7.39; A24G C124A: 0.386.
Next, C56U U129C: -0.507; C4G A18C: -3.16.
G23C A27G G110U: the “polymerase ribozyme fitness (log ratio)” value is -6.38.
On to G36C G47U U55G G61U C101U U132A, for which the “polymerase ribozyme fitness (log ratio)” value is -3.11.
The result for A18U U54C A83G U109A reads -6.59.
The result for C56G G122A reads -1.46.
On to C79U G110U G120C G122A, for which the “polymerase ribozyme fitness (log ratio)” value was -4.4.
The result for G57U A83C G93C reads -1.15; that for C62A C98U C123A, -2.16.
The result for G10A C49A U78C U116A G120U reads -0.56; that for A6G C12G A46U A50U C56U C73A, -2.15.
The result for A29G A50U C73A reads -2.36; that for C72U U78G, -1.7.
C31A A111C: the “polymerase ribozyme fitness (log ratio)” value was -3.67.
Next, U9C U112G: 0.223.
Next, C64U C124U U130G: 0.174; G48A C72U U81C C102A A121C: -0.882.
The result for A18G G48A U116G reads -3.25; that for A27G C40G, -1.89.
As to C56U U78G U106G G110A U129A U131C, the “polymerase ribozyme fitness (log ratio)” value is -4.97.
Consider A2U G63A A84U C86U, for which the “polymerase ribozyme fitness (log ratio)” value was -3.92.
In the case of C11A U78C, the “polymerase ribozyme fitness (log ratio)” value is -0.895.
Next, G36A G61U C72G G77A C82A C98U: -6.
Next, C8G C11U U21C C34U: -3.99.
Consider A26U A29G, for which the “polymerase ribozyme fitness (log ratio)” value was -4.77.
Next, G10C C64U C79U A105G: -3.38; C12A G36C: -1.69; U92A G120A: -2.17.
Regarding U38G G52U G135C, the “polymerase ribozyme fitness (log ratio)” value was -3.58.
For A37G A43U G52A G57U C98U, the “polymerase ribozyme fitness (log ratio)” value was -5.9.
Next, A75U C86U C88U: 0.294; C56G C98G: -4.96.
Next, C62A C104A A119U: -3.63.
The result for C85U U112C reads 1.15.
Turning to U9A C22A, the “polymerase ribozyme fitness (log ratio)” value was -4.76.
The result for A43C U125A reads -2.
As to G48U G57A, the “polymerase ribozyme fitness (log ratio)” value is -1.01.
The result for C13A C73G reads -3.11; that for U7A G42A C86U, -1.98.
Regarding C13A G45A G113U G117C, the “polymerase ribozyme fitness (log ratio)” value is -6.5.
The result for A5U C70A reads -2.56.
The result for C70G C85U A90U C104A C115A reads -6.79; that for A75C G77C, -1.58.
Next, G48A C88U U96A: -1.74; U54C C115U: -0.738.
Consider C20A C53A U59A, for which the “polymerase ribozyme fitness (log ratio)” value is -2.85.
Next, G57A C72U: -1.29; A37G C62A G93U A121G: -3.43.
The result for C15U C40A G60C reads -2.3.
The result for C22G C94G reads -4.33.
Consider C11A G45U U125G G127A, for which the “polymerase ribozyme fitness (log ratio)” value is -4.
As to U38A G60U C62A A74U C115G, the “polymerase ribozyme fitness (log ratio)” value was -6.4.
The result for A37U U92C reads -1.28; that for G36A A121U U133A, 1.79; that for C12A G110A, -1.57.
Next, U109A A111C C114A G117C: -6.37; C13G G35C G47A C80U A105C G107U G117A: -7.66; C34A C102U: -1.64.
With C88U A118U, the “polymerase ribozyme fitness (log ratio)” value was found to be 0.45.
The result for G19C C49G U92A U125G reads -4.13; that for C64A U78A G93A, -6.61; that for G47C G71C G117U, -4.58.
Next, C70A U132A: -0.853; U21C A27U C123U: -4.79.
Next, C40G G71A: -1.91; C73U G107A A108G G120A C124A: -3.12.
Turning to C13A A74G C86A C101G, the “polymerase ribozyme fitness (log ratio)” value was -4.34.
The result for C12A G17U U96A G120U reads -1.6; that for C12G G19A C20U C98U, -3.29; that for C13U C40U G48U G110A G117U A118U, -4.23.
The result for C53U C56U A91U reads -1.65; that for A2U C49A, -2.86.
The result for A26U A75G A95G reads -2.74.
For C12A G128U, the “polymerase ribozyme fitness (log ratio)” value is -2.12.

For the origin of these results see the RNAGym collection of RNA variant scans (doi:10.1073/pnas.2313332121).
